Values quoted from earlier work in publication PMC3734285, “Expression and Function of the Lipocalin-2 (24p3/NGAL) Receptor in Rodent and Human Intestinal Epithelia” (PLoS ONE, 2013).

System: megalin

B1: hNGAL: Human lipocalin-2/Neutrophil Gelatinase-Associated Lipocalin, high-affinity ligand of hNGAL-R, from Enzo Life Sciences (protein)
chain: QDSTSDLIPAPPLSKVPLQQNFQDNQFQGKWYVVGLAGNAILREDKDPQKMYATIYELKEDKSYNVTSVLFRKKKCDYWIRTFVPGCQPGEFTLGNIKSYPGLTSYLVRVVSTNYNQHAMVFFKKVSQNREYFKITLYGRTKELTSELKENFIRFSKSLGLPENHIVFPVPIDQCIDG
In the case of B1, the “fold lower affinity of megalin to hNGAL (versus hNGAL-R)” value is given as about 1000 fold.
